Ends that are not written are not given here. * marks the point of attachment. C16 diacid = O=C(O)CCCCCCCCCCCCCCC(=O)*; Palmitoyl = CCCCCCCCCCCCCCCC(=O)*; Lauroyl = CCCCCCCCCCCC(=O)*
T1: human GIP receptor (human, UniProt P48546 22-466)
T1 sequence (looked up): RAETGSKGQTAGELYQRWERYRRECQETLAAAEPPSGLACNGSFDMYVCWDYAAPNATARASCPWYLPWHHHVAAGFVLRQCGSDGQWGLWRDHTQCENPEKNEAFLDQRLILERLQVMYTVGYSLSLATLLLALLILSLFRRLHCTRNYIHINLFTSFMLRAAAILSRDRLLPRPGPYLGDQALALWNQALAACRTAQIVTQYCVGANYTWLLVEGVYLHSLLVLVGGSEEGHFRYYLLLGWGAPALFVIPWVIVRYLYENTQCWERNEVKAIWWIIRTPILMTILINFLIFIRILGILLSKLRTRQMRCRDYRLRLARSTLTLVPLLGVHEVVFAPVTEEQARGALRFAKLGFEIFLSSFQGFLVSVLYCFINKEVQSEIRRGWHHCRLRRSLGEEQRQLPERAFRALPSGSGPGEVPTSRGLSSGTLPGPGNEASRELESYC


Molecular target: T1, human GIP receptor
Assay: cell-based or functional assay

| Binder | cAMP agonism, EC50 (log) [log M] | cAMP agonism, Emax [%] | cAMP agonism, nM (EC50) [nM] | cAMP antagonism, log (IC50) [log M] | cAMP antagonism, nM (IC50) [nM] |
| --- | --- | --- | --- | --- | --- |
| EGTFISDYSIAMDKIHQQDFVNWLLAQK(Lauroyl)-NH2 [AT103 [hGIP(3-30)NH2-C12/30]] | -5.3 | 7 | 4880 | -6.9 | 121 |
| EGTFISDYSIAMDKIHQQDFVNWLLAQK-NH2 [hGIP(3-30)NH2] | – | – | – | -7.2 | 65 |
| Palmitoyl-EGTFISDYSIAMDKIHQQDFVNWLLAQK-NH2 [AT104 [hGIP(3-30)NH2-C16/3]] | -8.6 | 81 | 2.4 | – | – |
| EGTFISDYSIAMDKIHQQDFVNWLLAK(C16 diacid)K-NH2 (N-terminus assumed; SMILES CC[C@H](C)[C@H](NC(=O)[C@H](CO)NC(=O)[C@H](Cc1ccc(O)cc1)NC(=O)[C@H](CC(=O)O)NC(=O)[C@H](CO)NC(=O)[C@@H](NC(=O)[C@H](Cc1ccccc1)NC(=O)[C@@H](NC(=O)CNC(=O)[C@@H](N)CCC(=O)O)[C@@H](C)O)[C@@H](C)CC)C(=O)N[C@@H](C)C(=O)N[C@@H](CCSC)C(=O)N[C@@H](CC(=O)O)C(=O)N[C@@H](CCCCN)C(=O)N[C@H](C(=O)N[C@@H](Cc1c[nH]cn1)C(=O)N[C@@H](CCC(N)=O)C(=O)N[C@@H](CCC(N)=O)C(=O)N[C@@H](CC(=O)O)C(=O)N[C@@H](Cc1ccccc1)C(=O)N[C@H](C(=O)N[C@@H](CC(N)=O)C(=O)N[C@@H](Cc1c[nH]c2ccccc12)C(=O)N[C@@H](CC(C)C)C(=O)N[C@@H](CC(C)C)C(=O)N[C@@H](C)C(=O)N[C@@H](CCCCNC(=O)CCCCCCCCCCCCCCC(=O)O)C(=O)N[C@@H](CCCCN)C(N)=O)C(C)C)[C@@H](C)CC) [AT318 [hGIP(3-30)NH2[Q29K]-C16diacid/29]] | -6.9 | 10.8 | 131 | -6.6 | 224 |
| Palmitoyl-TFISDYSIAMDRIKQQDFVNWLLAQR-NH2 (SMILES CCCCCCCCCCCCCCCC(=O)N[C@H](C(=O)N[C@@H](Cc1ccccc1)C(=O)N[C@H](C(=O)N[C@@H](CO)C(=O)N[C@@H](CC(=O)O)C(=O)N[C@@H](Cc1ccc(O)cc1)C(=O)N[C@@H](CO)C(=O)N[C@H](C(=O)N[C@@H](C)C(=O)N[C@@H](CCSC)C(=O)N[C@@H](CC(=O)O)C(=O)N[C@@H](CCCNC(=N)N)C(=O)N[C@H](C(=O)N[C@@H](CCCCN)C(=O)N[C@@H](CCC(N)=O)C(=O)N[C@@H](CCC(N)=O)C(=O)N[C@@H](CC(=O)O)C(=O)N[C@@H](Cc1ccccc1)C(=O)N[C@H](C(=O)N[C@@H](CC(N)=O)C(=O)N[C@@H](Cc1c[nH]c2ccccc12)C(=O)N[C@@H](CC(C)C)C(=O)N[C@@H](CC(C)C)C(=O)N[C@@H](C)C(=O)N[C@@H](CCC(N)=O)C(=O)N[C@@H](CCCNC(=N)N)C(N)=O)C(C)C)[C@@H](C)CC)[C@@H](C)CC)[C@@H](C)CC)[C@@H](C)O) [AT133 [hGIP(5-30)NH2[K16R; H18K; K30R]-C16/5]] | – | 0 | – | -5.4 | 3810 |
| Palmitoyl-TFISDYSIAMDRIHQQDFVNWLLAQR-NH2 (SMILES CCCCCCCCCCCCCCCC(=O)N[C@H](C(=O)N[C@@H](Cc1ccccc1)C(=O)N[C@H](C(=O)N[C@@H](CO)C(=O)N[C@@H](CC(=O)O)C(=O)N[C@@H](Cc1ccc(O)cc1)C(=O)N[C@@H](CO)C(=O)N[C@H](C(=O)N[C@@H](C)C(=O)N[C@@H](CCSC)C(=O)N[C@@H](CC(=O)O)C(=O)N[C@@H](CCCNC(=N)N)C(=O)N[C@H](C(=O)N[C@@H](Cc1c[nH]cn1)C(=O)N[C@@H](CCC(N)=O)C(=O)N[C@@H](CCC(N)=O)C(=O)N[C@@H](CC(=O)O)C(=O)N[C@@H](Cc1ccccc1)C(=O)N[C@H](C(=O)N[C@@H](CC(N)=O)C(=O)N[C@@H](Cc1c[nH]c2ccccc12)C(=O)N[C@@H](CC(C)C)C(=O)N[C@@H](CC(C)C)C(=O)N[C@@H](C)C(=O)N[C@@H](CCC(N)=O)C(=O)N[C@@H](CCCNC(=N)N)C(N)=O)C(C)C)[C@@H](C)CC)[C@@H](C)CC)[C@@H](C)CC)[C@@H](C)O) [AT135 [hGIP(5-30)NH2[K16R; K30R]-C16/5]] | – | 0 | – | – | – |
| EGTFISDYSIAMDKIHQQDFVNWLLK(C16 diacid)QK-NH2 (N-terminus assumed; SMILES CC[C@H](C)[C@H](NC(=O)[C@H](CO)NC(=O)[C@H](Cc1ccc(O)cc1)NC(=O)[C@H](CC(=O)O)NC(=O)[C@H](CO)NC(=O)[C@@H](NC(=O)[C@H](Cc1ccccc1)NC(=O)[C@@H](NC(=O)CNC(=O)[C@@H](N)CCC(=O)O)[C@@H](C)O)[C@@H](C)CC)C(=O)N[C@@H](C)C(=O)N[C@@H](CCSC)C(=O)N[C@@H](CC(=O)O)C(=O)N[C@@H](CCCCN)C(=O)N[C@H](C(=O)N[C@@H](Cc1c[nH]cn1)C(=O)N[C@@H](CCC(N)=O)C(=O)N[C@@H](CCC(N)=O)C(=O)N[C@@H](CC(=O)O)C(=O)N[C@@H](Cc1ccccc1)C(=O)N[C@H](C(=O)N[C@@H](CC(N)=O)C(=O)N[C@@H](Cc1c[nH]c2ccccc12)C(=O)N[C@@H](CC(C)C)C(=O)N[C@@H](CC(C)C)C(=O)N[C@@H](CCCCNC(=O)CCCCCCCCCCCCCCC(=O)O)C(=O)N[C@@H](CCC(N)=O)C(=O)N[C@@H](CCCCN)C(N)=O)C(C)C)[C@@H](C)CC) [AT317 [hGIP(3-30)NH2[A28K]-C16diacid/28]] | -7.2 | 21.8 | 62 | -6.6 | 228 |
| TFISDYSIAMDRIK(Palmitoyl)QQDFVNWLLAQR-NH2 (N-terminus assumed; SMILES CCCCCCCCCCCCCCCC(=O)NCCCC[C@H](NC(=O)[C@@H](NC(=O)[C@H](CCCNC(=N)N)NC(=O)[C@H](CC(=O)O)NC(=O)[C@H](CCSC)NC(=O)[C@H](C)NC(=O)[C@@H](NC(=O)[C@H](CO)NC(=O)[C@H](Cc1ccc(O)cc1)NC(=O)[C@H](CC(=O)O)NC(=O)[C@H](CO)NC(=O)[C@@H](NC(=O)[C@H](Cc1ccccc1)NC(=O)[C@@H](N)[C@@H](C)O)[C@@H](C)CC)[C@@H](C)CC)[C@@H](C)CC)C(=O)N[C@@H](CCC(N)=O)C(=O)N[C@@H](CCC(N)=O)C(=O)N[C@@H](CC(=O)O)C(=O)N[C@@H](Cc1ccccc1)C(=O)N[C@H](C(=O)N[C@@H](CC(N)=O)C(=O)N[C@@H](Cc1c[nH]c2ccccc12)C(=O)N[C@@H](CC(C)C)C(=O)N[C@@H](CC(C)C)C(=O)N[C@@H](C)C(=O)N[C@@H](CCC(N)=O)C(=O)N[C@@H](CCCNC(=N)N)C(N)=O)C(C)C) [AT134 [hGIP(5-30)NH2[K16R; H18K; K30R]-16/18]] | -7 | 11 | 35 | -7 | 93 |
| TFISDYSIAMDKIK(Palmitoyl)QQDFVNWLLAQK-NH2 (N-terminus assumed; SMILES CCCCCCCCCCCCCCCC(=O)NCCCC[C@H](NC(=O)[C@@H](NC(=O)[C@H](CCCCN)NC(=O)[C@H](CC(=O)O)NC(=O)[C@H](CCSC)NC(=O)[C@H](C)NC(=O)[C@@H](NC(=O)[C@H](CO)NC(=O)[C@H](Cc1ccc(O)cc1)NC(=O)[C@H](CC(=O)O)NC(=O)[C@H](CO)NC(=O)[C@@H](NC(=O)[C@H](Cc1ccccc1)NC(=O)[C@@H](N)[C@@H](C)O)[C@@H](C)CC)[C@@H](C)CC)[C@@H](C)CC)C(=O)N[C@@H](CCC(N)=O)C(=O)N[C@@H](CCC(N)=O)C(=O)N[C@@H](CC(=O)O)C(=O)N[C@@H](Cc1ccccc1)C(=O)N[C@H](C(=O)N[C@@H](CC(N)=O)C(=O)N[C@@H](Cc1c[nH]c2ccccc12)C(=O)N[C@@H](CC(C)C)C(=O)N[C@@H](CC(C)C)C(=O)N[C@@H](C)C(=O)N[C@@H](CCC(N)=O)C(=O)N[C@@H](CCCCN)C(N)=O)C(C)C) [AT145 [hGIP(5-30)NH2[H18K]-C16/18]] | -7 | 16 | 33 | -7.2 | 66 |
| EGTFISDYSIAMDK(Lauroyl)IHQQDFVNWLLAQK-NH2 [AT102 [hGIP(3-30)NH2-C12/16]] | -9.1 | 66 | 0.7 | – | – |
| Lauroyl-EGTFISDYSIAMDKIHQQDFVNWLLAQK-NH2 [AT101 [hGIP(3-30)NH2-C12/3]] | -9.1 | 62 | 0.7 | – | – |

Reference: US20200087373A1 (UNIVERSITY OF COPENHAGEN, published 2020)
